Laboratory results taken from US20240285725A1 (APELLIS PHARMACEUTICALS, published 2024).
Each block holds one binder with its values, some of them ahead of it.

How the values were obtained:
Assay in all cases: cell-based or functional assay
complement component C3 [1] = target: T1, complement component C3 (human, UniProt P01024 23-1663)
complement component C3 [2] = target: T1, complement component C3; remark: listed apart in the source
complement component C3 [3] = target: T1, complement component C3; remark: listed apart in the source

B3: CA28-AEEAc-Lys(mPEG40K-carbonyl) (peptide)
peptide: ICVWQDWGAHRCTK
modifications: not fully specified; N-terminal acetyl; 1-methyl-tryptophan at position 4; disulfide Cys2-Cys12; AEEAc between Thr13 and Lys; C-terminal amide; linear 40 kD mPEG (NOF ME-400TS) on the Lys side chain
IC50 (read off the curve), classical-pathway complement activation (C3b deposition ELISA, human plasma) (complement component C3 [1]): ~700 nM

B4: (CA28-AEEAc)8-PEG40k (peptide)
peptide: ICVWQDWGAHRCTK
modifications: N-terminal acetyl; 1-methyl-tryptophan at position 4; disulfide Cys2-Cys12; AEEAc between Thr13 and Lys; C-terminal amide; Lys side chain coupled to an arm of an eight-arm 40 kD PEG (NOF HGEO-400GS)
IC50 on a molar basis (corrected for 7.5 CA28 moieties per molecule), classical complement inhibition assay (complement component C3 [2]): ~260 nM | IC50, classical complement inhibition assay (C3b deposition ELISA, human plasma), as a function of CA28 moiety concentration (complement component C3 [3]): 1930 nM

The next lines start with the values.

IC50 (read off the curve), classical-pathway complement activation (C3b deposition ELISA, human plasma) (complement component C3 [1]): ~700 nM
B1: CA28-AEEAc-Lys-(PEG40k) (peptide)
peptide: ICVWQDWGAHRCTK
modifications: not fully specified; N-terminal acetyl; 1-methyl-tryptophan at position 4; disulfide Cys2-Cys12; AEEAc between Thr13 and Lys; C-terminal amide; linear monofunctional 40 kD PEG (NOF ME-400GS) on the Lys side chain

IC50 (read off the curve), classical-pathway complement activation (C3b deposition ELISA, human plasma) (complement component C3 [1]): ~700 nM
B2: CA28-AEEAc-Lys(mPEG40K-hexanoyl) (peptide)
peptide: ICVWQDWGAHRCTK
modifications: N-terminal acetyl; 1-methyl-tryptophan at position 4; disulfide Cys2-Cys12; AEEAc between Thr13 and Lys; C-terminal amide; linear 40 kD mPEG (NOF ME-400HS) on the Lys side chain

IC50 (read off the curve), classical-pathway complement activation (C3b deposition ELISA, human plasma) (complement component C3 [1]): ~700 nM
B5: CA28-AEEAc-Lys(mPEG40K-succinyl) (peptide)
peptide: ICVWQDWGAHRCTK
modifications: N-terminal acetyl; 1-methyl-tryptophan at position 4; disulfide Cys2-Cys12; AEEAc between Thr13 and Lys; C-terminal amide; linear 40 kD mPEG (NOF ME-400CS) on the Lys side chain
